Experimental data published in IntAct's records for PubMed 17855368.

B1: DNA-binding protein inhibitor ID-1 (Homo sapiens), P41134 (parent)
chain: MKVASGSTATAAAGPSCALKAGKTASGAGEVVRCLSEQSVAISRCAGGAGARLPALLDEQQVNVLLYDMNGCYSRLKELVPTLPQNRKVSKVEILQHVIDYIRDLQLELNSESEVGTPGGRGLPVRAPLSTLNGEISALTAEAACVPADDRILCR

Variants of: B1
Conditions: with cav1_human CAV1, Q03135
Sequence of cav1_human CAV1, Q03135 (Q03135 whole entry): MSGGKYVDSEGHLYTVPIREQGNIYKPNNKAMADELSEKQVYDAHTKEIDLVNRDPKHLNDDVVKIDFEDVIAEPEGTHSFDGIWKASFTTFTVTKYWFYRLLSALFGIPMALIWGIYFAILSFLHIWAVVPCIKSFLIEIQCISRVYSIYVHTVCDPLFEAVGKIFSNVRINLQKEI

Row | Variant | effect of a mutation on the interaction
1 | MKVASGSTATAAAGPSCALKAGKTASGAGEVVRCLSEQSVAISRCAGGAGARLPALLDEQQVNVLLYDMNGCYSRLKELVPTLPQNRKVSKVEILQHVIDDIRDLQLELNSESEVGTPGGRGLPVRAPLSTLNGEISALTAEAACVPADDRILCR [Y101D] | decreasing interaction
